This note sets out measurements from article PMC12427801, “Deciphering α-L-Fucosidase Activity Contribution in Human and Mouse: Tissue α-L-Fucosidase FUCA1 Meets Plasma α-L-Fucosidase FUCA2” (Cells, 2025).

The data set concerns the molecule itself. The experiment in a line: SEC; Superdex 200 Increase 10/300 GL, McIlvaine buffer pH 4.6, 0.3 mL/min; purified protein; fractions tested by 4-MUF fucosidase activity (FUCA1) or H6-tag western blot (FUCA2-H6). Background: Size exclusion chromatography separates by hydrodynamic size, large species first.

B1: H6-tagged human tissue α-L-fucosidase 1 (FUCA1-H6) (enzyme, UniProt P04066 32-466, looked up)
chain: QPPRRYTPDWPSLDSRPLPAWFDEAKFGVFIHWGVFSVPAWGSEWFWWHWQGEGRPQYQRFMRDNYPPGFSYADFGPQFTARFFHPEEWADLFQAAGAKYVVLTTKHHEGFTNWPSPVSWNWNSKDVGPHRDLVGELGTALRKRNIRYGLYHSLLEWFHPLYLLDKKNGFKTQHFVSAKTMPELYDLVNSYKPDLIWSDGEWECPDTYWNSTNFLSWLYNDSPVKDEVVVNDRWGQNCSCHHGGYYNCEDKFKPQSLPDHKWEMCTSIDKFSWGYRRDMALSDVTEESEIISELVQTVSLGGNYLLNIGPTKDGLIVPIFQERLLAVGKWLSINGEAIYASKPWRVQWEKNTTSVWYTSKGSAVYAIFLHWPENGVLNLESPITTSTTKITMLGIQGDLKWSTDPDKGLFISLPQLPPSAVPAEFAWTIKLTGVK
notes: human tissue α-L-fucosidase FUCA1; N-glycosylated; also called H6-tagged FUCA1; H6-tagged human fucosidase; source: HT1080 cells, stably expressing, conditioned medium, purified (Ni-NTA)
Turning to B1, the binding result is “binds”.

B2: untagged human tissue α-L-fucosidase 1 (FUCA1) (enzyme, UniProt P04066 32-466, looked up)
chain: B1 chain
notes: human tissue α-L-fucosidase FUCA1; untagged, secreted into the medium; N-glycosylated; also called untagged FUCA1; hFUCA1; source: CHO-K1 cells, stably expressing, conditioned medium, purified (ammonium sulfate precipitation, strong cation exchange)
As to B2, the binding result was “binds”.
